# According to the supplement of paper PMC10065799, “High-throughput profiling of sequence recognition by tyrosine kinases and SH2 domains using bacterial peptide display” (eLife, 2023):
# Experiments:
# [1] = target: c-Src SH2; experiment: SH2 binding enrichment of the phosphorylated peptide, bacterial display (enrichment ratio); higher = better substrate or ligand; peptides without Tyr show the background
# [2] = target: SHP2-C SH2; experiment: as above
# [3] = target: Grb2 SH2 (UniProt P62993); experiment: as above
# [4] = target: EPHB1 (UniProt P54762); experiment: phosphorylation enrichment, bacterial display (enrichment ratio); higher = better substrate or ligand; peptides without Tyr show the background
# [5] = target: FGFR1 (UniProt P11362); experiment: as above
# [6] = target: FGFR3 (UniProt P22607); experiment: as above
# [7] = tested on: c-Src; experiment: as above
# [8] = tested on: c-Abl (mouse); experiment: as above
# [9] = target: EPHB2 (UniProt P29323); experiment: as above
# [10] = target: Fyn (UniProt P06241); experiment: as above
# [11] = tested on: Fer (mouse); experiment: as above
# [12] = target: Jak2 (UniProt O60674); experiment: as above
# [13] = target: MERTK (UniProt Q12866); experiment: as above
# [14] = tested on: AncSZ; experiment: as above
# [15] = target: Hck (UniProt P08631); experiment: as above
# [16] = target: Fes (UniProt P07332); experiment: as above
# 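For SH2 binding enrichment of the phosphorylated peptide, bacterial display in this document: peptide library displayed on the E. coli surface as eCPX fusions, selected cells deep-sequenced, score is each peptide's frequency after selection divided by its frequency in the input.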
# 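For phosphorylation enrichment, bacterial display in this document: 11-residue human phosphosite peptides and single-mutation variants displayed on the E. coli surface, counted by deep sequencing, each peptide's frequency after selection divided by its frequency in the unselected input library; frequency after pTyr selection over input frequency; kinase dosed for 20-30% of maximal phosphorylation in three min.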
# Sequence of Fes (P07332 whole entry, looked up, the tested form may be a part): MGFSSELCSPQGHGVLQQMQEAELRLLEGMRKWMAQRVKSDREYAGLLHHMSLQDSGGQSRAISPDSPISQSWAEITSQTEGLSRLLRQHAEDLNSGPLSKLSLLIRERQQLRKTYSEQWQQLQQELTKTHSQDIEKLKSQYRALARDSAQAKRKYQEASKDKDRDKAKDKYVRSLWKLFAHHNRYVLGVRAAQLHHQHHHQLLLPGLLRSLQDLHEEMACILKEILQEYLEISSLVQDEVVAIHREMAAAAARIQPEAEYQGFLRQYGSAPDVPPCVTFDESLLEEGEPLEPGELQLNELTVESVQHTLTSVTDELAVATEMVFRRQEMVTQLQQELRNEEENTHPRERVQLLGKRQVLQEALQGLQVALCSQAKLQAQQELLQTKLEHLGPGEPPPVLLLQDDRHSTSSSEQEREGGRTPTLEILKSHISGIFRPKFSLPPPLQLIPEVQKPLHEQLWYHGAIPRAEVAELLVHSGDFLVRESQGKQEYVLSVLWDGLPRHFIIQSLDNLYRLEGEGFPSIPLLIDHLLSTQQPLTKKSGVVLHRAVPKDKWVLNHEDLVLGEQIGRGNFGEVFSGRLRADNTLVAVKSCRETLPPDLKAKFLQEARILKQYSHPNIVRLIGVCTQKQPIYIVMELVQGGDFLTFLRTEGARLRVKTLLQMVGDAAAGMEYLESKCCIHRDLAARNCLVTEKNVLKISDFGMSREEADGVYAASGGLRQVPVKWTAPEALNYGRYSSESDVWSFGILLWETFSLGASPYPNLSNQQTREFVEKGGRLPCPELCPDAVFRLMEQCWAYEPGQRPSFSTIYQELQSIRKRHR
# Sequence of Fyn (P06241 whole entry, looked up): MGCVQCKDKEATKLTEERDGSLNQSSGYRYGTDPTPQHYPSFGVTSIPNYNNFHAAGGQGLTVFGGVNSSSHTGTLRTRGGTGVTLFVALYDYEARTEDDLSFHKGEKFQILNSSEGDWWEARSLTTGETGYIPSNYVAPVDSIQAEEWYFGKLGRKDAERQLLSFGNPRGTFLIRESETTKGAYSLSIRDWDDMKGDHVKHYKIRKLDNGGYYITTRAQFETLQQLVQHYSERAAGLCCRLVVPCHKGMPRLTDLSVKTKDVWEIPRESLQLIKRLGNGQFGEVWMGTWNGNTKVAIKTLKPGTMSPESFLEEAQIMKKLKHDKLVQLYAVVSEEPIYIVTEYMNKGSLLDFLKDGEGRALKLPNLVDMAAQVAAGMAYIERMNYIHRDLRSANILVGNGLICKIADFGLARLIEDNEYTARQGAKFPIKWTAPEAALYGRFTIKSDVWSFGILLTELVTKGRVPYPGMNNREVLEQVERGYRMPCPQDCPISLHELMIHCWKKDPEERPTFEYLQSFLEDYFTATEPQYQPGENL
# Sequence of FGFR3 (P22607 whole entry, looked up): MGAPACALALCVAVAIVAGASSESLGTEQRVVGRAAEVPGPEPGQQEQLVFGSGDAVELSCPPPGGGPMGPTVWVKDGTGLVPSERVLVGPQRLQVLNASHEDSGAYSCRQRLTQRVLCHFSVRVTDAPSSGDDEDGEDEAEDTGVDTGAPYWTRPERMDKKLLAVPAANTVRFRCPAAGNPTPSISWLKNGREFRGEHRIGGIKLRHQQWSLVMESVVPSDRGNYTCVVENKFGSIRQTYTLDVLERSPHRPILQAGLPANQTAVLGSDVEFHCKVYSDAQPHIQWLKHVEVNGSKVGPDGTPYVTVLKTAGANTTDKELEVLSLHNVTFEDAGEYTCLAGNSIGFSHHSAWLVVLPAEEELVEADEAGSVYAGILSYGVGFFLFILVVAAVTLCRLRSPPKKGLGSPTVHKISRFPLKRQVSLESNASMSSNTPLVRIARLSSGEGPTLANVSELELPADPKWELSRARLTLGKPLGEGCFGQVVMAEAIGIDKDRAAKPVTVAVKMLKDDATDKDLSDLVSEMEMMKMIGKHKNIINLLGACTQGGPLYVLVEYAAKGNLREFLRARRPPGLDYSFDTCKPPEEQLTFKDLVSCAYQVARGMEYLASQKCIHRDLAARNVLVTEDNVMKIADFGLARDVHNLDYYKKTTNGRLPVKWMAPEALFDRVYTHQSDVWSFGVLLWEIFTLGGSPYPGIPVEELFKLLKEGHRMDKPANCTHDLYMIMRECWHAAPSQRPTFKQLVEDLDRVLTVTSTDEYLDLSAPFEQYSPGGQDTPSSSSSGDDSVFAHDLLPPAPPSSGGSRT
# Sequence of Grb2 SH2 (P62993 whole entry, looked up): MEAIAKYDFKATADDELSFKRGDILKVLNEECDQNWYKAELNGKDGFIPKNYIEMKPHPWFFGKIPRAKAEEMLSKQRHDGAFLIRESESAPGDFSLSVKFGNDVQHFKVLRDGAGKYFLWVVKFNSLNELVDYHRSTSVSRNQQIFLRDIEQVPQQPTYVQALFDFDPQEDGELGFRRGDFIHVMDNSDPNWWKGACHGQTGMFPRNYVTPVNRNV
# Sequence of FGFR1 (P11362 whole entry, looked up): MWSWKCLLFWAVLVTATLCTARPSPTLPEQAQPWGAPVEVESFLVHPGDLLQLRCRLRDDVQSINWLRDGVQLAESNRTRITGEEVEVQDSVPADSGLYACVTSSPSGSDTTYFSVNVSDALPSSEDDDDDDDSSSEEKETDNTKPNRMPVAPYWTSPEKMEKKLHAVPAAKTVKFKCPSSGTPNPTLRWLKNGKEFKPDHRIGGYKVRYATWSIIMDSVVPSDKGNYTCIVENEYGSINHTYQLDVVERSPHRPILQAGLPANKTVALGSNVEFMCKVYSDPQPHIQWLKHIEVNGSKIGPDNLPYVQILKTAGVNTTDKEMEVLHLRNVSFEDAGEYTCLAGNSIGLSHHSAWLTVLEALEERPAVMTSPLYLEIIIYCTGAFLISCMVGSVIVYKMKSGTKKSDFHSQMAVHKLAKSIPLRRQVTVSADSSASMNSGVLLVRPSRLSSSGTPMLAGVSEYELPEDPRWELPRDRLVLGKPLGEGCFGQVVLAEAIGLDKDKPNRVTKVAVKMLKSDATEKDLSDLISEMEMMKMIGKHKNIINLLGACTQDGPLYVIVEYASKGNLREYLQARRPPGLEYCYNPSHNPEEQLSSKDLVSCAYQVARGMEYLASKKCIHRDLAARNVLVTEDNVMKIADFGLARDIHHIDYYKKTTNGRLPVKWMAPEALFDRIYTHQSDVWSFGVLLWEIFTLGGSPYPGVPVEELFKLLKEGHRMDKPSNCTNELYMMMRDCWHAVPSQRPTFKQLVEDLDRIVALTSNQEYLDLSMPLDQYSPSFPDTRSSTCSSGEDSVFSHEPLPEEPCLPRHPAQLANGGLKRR
# Sequence of Hck (P08631 whole entry, looked up): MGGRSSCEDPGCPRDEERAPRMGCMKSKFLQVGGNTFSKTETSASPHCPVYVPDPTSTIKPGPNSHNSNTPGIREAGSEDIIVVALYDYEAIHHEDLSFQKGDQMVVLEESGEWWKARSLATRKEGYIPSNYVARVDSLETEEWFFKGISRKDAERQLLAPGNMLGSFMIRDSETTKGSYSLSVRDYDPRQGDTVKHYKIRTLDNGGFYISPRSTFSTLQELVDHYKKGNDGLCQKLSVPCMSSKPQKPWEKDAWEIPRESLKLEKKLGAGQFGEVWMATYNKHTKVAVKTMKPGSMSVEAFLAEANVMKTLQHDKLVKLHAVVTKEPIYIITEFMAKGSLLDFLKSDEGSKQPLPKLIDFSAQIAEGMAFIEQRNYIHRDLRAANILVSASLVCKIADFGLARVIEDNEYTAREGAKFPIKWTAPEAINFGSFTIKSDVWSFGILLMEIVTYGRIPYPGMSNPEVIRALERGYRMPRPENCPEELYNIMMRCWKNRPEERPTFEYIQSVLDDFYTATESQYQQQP
# Sequence of Jak2 (O60674 whole entry, looked up): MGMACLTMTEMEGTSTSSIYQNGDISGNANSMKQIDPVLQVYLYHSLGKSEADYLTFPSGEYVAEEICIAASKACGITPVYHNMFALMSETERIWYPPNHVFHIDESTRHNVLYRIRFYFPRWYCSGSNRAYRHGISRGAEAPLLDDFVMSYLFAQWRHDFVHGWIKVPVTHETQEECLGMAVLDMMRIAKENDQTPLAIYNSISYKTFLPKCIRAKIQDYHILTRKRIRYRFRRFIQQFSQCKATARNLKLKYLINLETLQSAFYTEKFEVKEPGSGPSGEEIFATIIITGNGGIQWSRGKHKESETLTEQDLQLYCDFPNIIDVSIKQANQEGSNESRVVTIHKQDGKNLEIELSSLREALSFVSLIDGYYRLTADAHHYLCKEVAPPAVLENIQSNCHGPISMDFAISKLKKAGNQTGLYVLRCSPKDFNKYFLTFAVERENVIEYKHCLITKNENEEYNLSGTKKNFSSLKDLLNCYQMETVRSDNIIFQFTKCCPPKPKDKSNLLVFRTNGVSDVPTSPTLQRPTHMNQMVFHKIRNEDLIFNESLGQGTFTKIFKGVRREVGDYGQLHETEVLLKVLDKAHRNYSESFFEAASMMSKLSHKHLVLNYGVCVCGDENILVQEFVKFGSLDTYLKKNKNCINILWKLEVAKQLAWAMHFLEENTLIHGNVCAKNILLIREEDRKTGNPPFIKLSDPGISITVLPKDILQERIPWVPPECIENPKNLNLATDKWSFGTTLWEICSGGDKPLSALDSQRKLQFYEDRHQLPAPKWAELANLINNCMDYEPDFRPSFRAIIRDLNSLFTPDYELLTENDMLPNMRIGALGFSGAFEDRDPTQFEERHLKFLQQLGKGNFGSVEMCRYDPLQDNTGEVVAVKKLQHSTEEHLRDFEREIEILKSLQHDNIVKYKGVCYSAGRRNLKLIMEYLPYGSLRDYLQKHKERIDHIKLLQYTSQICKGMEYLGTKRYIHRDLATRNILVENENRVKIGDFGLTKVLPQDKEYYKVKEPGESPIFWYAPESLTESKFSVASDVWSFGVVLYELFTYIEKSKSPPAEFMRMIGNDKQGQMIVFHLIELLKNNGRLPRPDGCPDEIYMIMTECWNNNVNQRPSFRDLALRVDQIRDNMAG
Sequence,SH2 binding enrichment [1],SH2 binding enrichment [2],SH2 binding enrichment [3],phosphorylation enrichment [4],phosphorylation enrichment [5],phosphorylation enrichment [6],phosphorylation enrichment [7],phosphorylation enrichment [8],phosphorylation enrichment [9],phosphorylation enrichment [10],phosphorylation enrichment [11],phosphorylation enrichment [12],phosphorylation enrichment [13],phosphorylation enrichment [14],phosphorylation enrichment [15],phosphorylation enrichment [16]
SFPPTYRYERG [INPPL1_Y661],0.489,0.605,0.831,0.362,0.498,0.49,0.427,0.373,0.43,0.431,0.29,0.449,0.505,0.73,0.437,0.592
SFSGEYGGGGG [ZG16_Y30_YF],0.471,0.543,0.663,0.392,0.496,0.35,0.423,0.505,0.467,0.348,0.413,0.47,0.306,0.62,0.397,0.571
SGIYQYIIAKF [FOXL2_Y83],1.07,1.05,1.24,10.6,6.4,4.7,3.69,6.06,5.98,4.03,9.49,0.852,8.1,1.15,6.52,1.72
SGIYQYNIAKF [FOXL2_Y83_I84N],1.01,0.875,0.976,2.14,0.659,0.605,3.79,4.58,1.56,3.42,14.7,0.593,9.83,0.898,4.76,0.732
SGPRCYTIAAL [TTR_Y125_R124C],0.586,0.766,0.808,0.41,0.392,0.462,0.399,0.46,0.403,0.405,0.554,0.535,0.344,0.617,0.354,0.669
SGPRHYTIAAL [TTR_Y125_R124H],1.35,1.19,1.06,0.516,0.404,0.509,0.455,0.524,0.51,0.455,0.438,0.525,0.464,0.59,0.468,0.66
SGSIHYSRVPR [GLB1_Y57],0.861,0.824,0.734,0.542,0.772,0.578,0.677,0.716,0.436,0.605,0.535,0.772,0.64,0.629,0.529,0.763
SHSMKYFDTAV [HLA-C_Y31_R30K],0.417,0.71,1.01,0.36,0.396,0.432,0.395,0.469,0.389,0.356,0.357,0.785,0.436,0.579,0.392,0.572
SIIKDYFHRGA [GATM_Y203],0.537,0.607,0.87,0.376,0.48,0.455,0.477,0.525,0.438,0.407,0.433,0.764,0.397,0.579,0.43,0.679
SIKDKYVTAFF [KCNH2_Y611_L615F_YF],0.589,0.848,1.04,0.363,0.403,0.489,0.372,0.635,0.44,0.399,0.483,0.526,0.369,0.582,0.4,0.731
SISLRYEGRVF [ABL1_Y167_YF],0.68,0.926,1.05,0.636,0.524,0.838,0.372,0.696,0.703,0.438,0.686,0.918,0.384,1.25,0.507,1.26
SISLRYEGRVY [ABL1_Y167],0.685,0.881,1.11,0.606,0.484,0.776,0.394,0.803,0.563,0.513,0.546,1.06,0.428,1.07,0.506,1.09
SKNYTYIWWLN [PSG4_Y271],0.444,0.657,0.921,0.582,0.589,0.77,0.273,0.676,0.58,0.343,0.638,1.09,0.332,1.09,0.4,1.14
SLMNQYVNKEF [RAB7A_Y28_K32E],0.578,0.949,2.46,0.392,0.373,0.568,0.459,0.482,0.554,0.461,0.385,0.442,0.383,0.58,0.469,0.66
SLNEVYTKNKT [MSH2_Y563_E562V],0.456,0.581,0.722,0.375,0.446,0.444,0.431,0.437,0.411,0.411,0.328,0.514,0.423,0.641,0.38,0.727
SLRAHYDTPRS [DOK7_Y405],3.32,0.914,0.712,0.392,0.343,0.351,0.298,0.412,0.351,0.349,0.367,0.402,0.319,0.428,0.328,0.448
